As usually defined, the stoichiometry N is the number of molecules, sites or subunits per partner or assembly.

This series deals with the molecule itself. In words: non-reducing SDS-PAGE with Western blot; A549 or MLF cells treated with Auranofin (A549: 10 uM, MLF: 2 uM) alone or with KU55933 (10 uM, 1 h pre-treatment); lysed in CHAPS buffer with 100 mM NEM; boiled in non-reducing sample buffer; disulfide-linked dimers. (In general: A western blot detects proteins with antibodies after separation by electrophoresis.)

B1: peroxiredoxin 3 (PRDX3), A549 cells (enzyme, human (endogenous in A549), UniProt P30048 62-256, looked up)
chain: APAVTQHAPYFKGTAVVNGEFKDLSLDDFKGKYLVLFFYPLDFTFVCPTEIVAFSDKANEFHDVNCEVVAVSVDSHFSHLAWINTPRKNGGLGHMNIALLSDLTKQISRDYGVLLEGSGLALRGLFIIDPNGVIKHLSVNDLPVGRSVEETLRLVKAFQYVETHGEVCPANWTPDSPTIKPSPAASKEYFQKVNQ
notes: peroxiredoxin 3, endogenous in A549 cells, detected by anti-PRDX3 blot; source: endogenous, A549 lysate
With B1, the “stoichiometry N” value was 2.

B2: peroxiredoxin 1 (PRDX1) (enzyme, human (endogenous in HEK 293T and A549), UniProt Q06830 1-199, looked up)
chain: MSSGNAKIGHPAPNFKATAVMPDGQFKDISLSDYKGKYVVFFFYPLDFTFVCPTEIIAFSDRAEEFKKLNCQVIGASVDSHFCHLAWVNTPKKQGGLGPMNIPLVSDPKRTIAQDYGVLKADEGISFRGLFIIDDKGILRQITVNDLPVGRSVDETLRLVQAFQFTDKHGEVCPAGWKPGSDTIKPDVQKSKEYFSKQK
notes: peroxiredoxin 1, endogenous in human cell lines, detected by anti-PRDX1 blot; source: endogenous, HEK 293T lysate (trapping); endogenous, A549 lysate (dimer analysis)
Regarding B2, the “stoichiometry N” value was 2.

B3: peroxiredoxin 3 (PRDX3), murine lung fibroblasts (enzyme, mouse (endogenous in MLFs), UniProt P20108 63-257, looked up)
chain: TPAVTQHAPYFKGTAVVNGEFKELSLDDFKGKYLVLFFYPLDFTFVCPTEIVAFSDKANEFHDVNCEVVAVSVDSHFSHLAWINTPRKNGGLGHMNITLLSDITKQISRDYGVLLESAGIALRGLFIIDPNGVVKHLSVNDLPVGRSVEETLRLVKAFQFVETHGEVCPANWTPESPTIKPSPTASKEYFEKVHQ
notes: peroxiredoxin 3, endogenous in murine lung fibroblasts, detected by anti-PRDX3 blot; source: endogenous, murine lung fibroblast (MLF) lysate
As to B3, the “stoichiometry N” value amounted to 2.
